These results are taken from article PMC12705809.

This experiment has as its target Chaetomium thermophilum Pmt4 (protein O-mannosyltransferase 4), wild-type full-length (Chaetomium thermophilum). Description: native MS; ctPmt4 purified in DDM, exchanged into 200 mM ammonium acetate pH 8.0 with 2x CMC detergent; Q Exactive UHMR, negative polarity; monomer and dimer peaks seen.

Take “Chaetomium thermophilum Pmt4 (protein O-mannosyltransferase 4), wild-type full-length (enzyme)”: the stoichiometry N stood at 2.
